The target of assay [1] is mycoplasma pneumonia P30 (purified protein P30Ag produced by expressing amino acids 96-274 with Escherichia coli) (Mycoplasma pneumoniae) (UniProt P75330). The assay can be described thus: immunochromatography sandwich, P30(b)-gold label and P30(b) detection line, P30Ag 10 pg/mL, no peptide.
Assay [2] has as its target full-length protein mycoplasma pneumonia P30 (amino acids 1-274; SEQ ID NO: 1) (Mycoplasma pneumoniae) (UniProt P75330). The assay can be described thus: ELISA, full-length P30 coated, 5 ug/mL P30(b), no peptide (0 point of the peptide 2 series). On the technique in general: ELISA stands for enzyme-linked immunosorbent assay.
For assay [3], the target named is P30 protein of Mycoplasma pneumoniae as present in Mycoplasma pneumoniae analytes (deactivated Mycoplasma pneumoniae Antigen (FH), Meridian; pharyngeal swabs of infected subjects) (Mycoplasma pneumoniae) (UniProt P75330). The assay can be described thus: immunochromatography sandwich (Com. Ex. 2), label P30(b), detection P30(b); pharyngeal swab Subject 2.
The target in assay [4] is mycoplasma pneumonia P30 (purified protein P30Ag produced by expressing amino acids 96-274 with Escherichia coli) (Mycoplasma pneumoniae) (UniProt P75330). The assay can be described thus: immunochromatography sandwich (Com. Ex. 9), label P30(b), detection P30(b); analyte P30Ag.
Assay [5] deals with P30 protein of Mycoplasma pneumoniae as present in Mycoplasma pneumoniae analytes (deactivated Mycoplasma pneumoniae Antigen (FH), Meridian; pharyngeal swabs of infected subjects) (Mycoplasma pneumoniae) (UniProt P75330). The assay can be described thus: immunochromatography sandwich (Com. Ex. 1), label P30(a), detection P30(b); pharyngeal swab Subject 2.
Assay [6] shares this target. The assay can be described thus: immunochromatography sandwich (Com. Ex. 7), label P30(b), detection P30(b); deactivated Mycoplasma pneumoniae (FH).
The target of assay [7] is mycoplasma pneumonia P30 (purified protein P30Ag produced by expressing amino acids 96-274 with Escherichia coli) (Mycoplasma pneumoniae) (UniProt P75330). The assay can be described thus: immunochromatography sandwich (Com. Ex. 8), label P30(a), detection P30(b); analyte P30Ag.
The target in assay [8] is P30 protein of Mycoplasma pneumoniae as present in Mycoplasma pneumoniae analytes (deactivated Mycoplasma pneumoniae Antigen (FH), Meridian; pharyngeal swabs of infected subjects) (Mycoplasma pneumoniae) (UniProt P75330). The assay can be described thus: immunochromatography sandwich (Com. Ex. 1), label P30(a), detection P30(b); pharyngeal swab Subject 1.
The target of assay [9] is mycoplasma pneumonia P30 (purified protein P30Ag produced by expressing amino acids 96-274 with Escherichia coli) (Mycoplasma pneumoniae) (UniProt P75330). The assay can be described thus: ELISA, P30Ag coated at 4 ng/mL, antibody 5 ug/mL, anti-mouse IgG-peroxidase.
The target of assay [10] is P30 protein of Mycoplasma pneumoniae as present in Mycoplasma pneumoniae analytes (deactivated Mycoplasma pneumoniae Antigen (FH), Meridian; pharyngeal swabs of infected subjects) (Mycoplasma pneumoniae) (UniProt P75330). The assay can be described thus: immunochromatography sandwich (Com. Ex. 2), label P30(b), detection P30(b); pharyngeal swab Subject 1.
Assay [11] shares this target. The assay can be described thus: immunochromatography sandwich (Com. Ex. 2), label P30(b), detection P30(b); deactivated Mycoplasma pneumoniae (FH).
The target is the same in assay [12]. The assay can be described thus: immunochromatography sandwich (Com. Ex. 7), label P30(b), detection P30(b); pharyngeal swab Subject 2.
Assay [13] has the same target. The assay can be described thus: immunochromatography sandwich (Com. Ex. 1), label P30(a), detection P30(b); deactivated Mycoplasma pneumoniae (FH).
Assay [14] has the same target. The assay can be described thus: immunochromatography sandwich (Com. Ex. 6), label P30(a), detection P30(b); pharyngeal swab Subject 1; Triton X-100/Tween 20 diluent.
Assay [15] has as its target full-length protein mycoplasma pneumonia P30 (amino acids 1-274; SEQ ID NO: 1) (Mycoplasma pneumoniae) (UniProt P75330). The assay can be described thus: ELISA, full-length P30 coated, 5 ug/mL P30(b), no peptide (0 point of the peptide 1 series).
The target in assay [16] is P30 protein of Mycoplasma pneumoniae as present in Mycoplasma pneumoniae analytes (deactivated Mycoplasma pneumoniae Antigen (FH), Meridian; pharyngeal swabs of infected subjects) (Mycoplasma pneumoniae) (UniProt P75330). The assay can be described thus: immunochromatography sandwich (Com. Ex. 6), label P30(a), detection P30(b); deactivated Mycoplasma pneumoniae (FH); Triton X-100/Tween 20 diluent.

Assay [17] has the same target. The assay can be described thus: immunochromatography sandwich (Com. Ex. 6), label P30(a), detection P30(b); pharyngeal swab Subject 2; Triton X-100/Tween 20 diluent.
Assay [18] shares this target. The assay can be described thus: immunochromatography sandwich (Com. Ex. 7), label P30(b), detection P30(b); pharyngeal swab Subject 1.
Assay [19] concerns the target antibody P30(a) (Fucal Research product Mp-P30-3-AB). The assay can be described thus: immunochromatography competition, 400 ng peptide 1 developed with P30Ag 10 pg/mL, P30(a) label and detection.
Assay [20] has as its target antibody P30(b) (Fucal Research product Mp-P30-9-AB). The assay can be described thus: competitive inhibition ELISA, full-length P30 coated, 5 ug/mL P30(b) + peptide 1 at x1 the antibody concentration.
Assay [21] deals with antibody P30(a) (Fucal Research product Mp-P30-3-AB). The assay can be described thus: competitive inhibition ELISA, full-length P30 coated, 5 ug/mL P30(a) + peptide 1 at x320 the antibody concentration.
The target in assay [22] is antibody P30(b) (Fucal Research product Mp-P30-9-AB). The assay can be described thus: competitive inhibition ELISA, full-length P30 coated, 5 ug/mL P30(b) + peptide 1 at x320 the antibody concentration.
For assay [23], the target named is antibody P30(a) (Fucal Research product Mp-P30-3-AB). The assay can be described thus: competitive inhibition ELISA, full-length P30 coated, 5 ug/mL P30(a) + peptide 1 at x640 the antibody concentration.
Assay [24] concerns the target antibody P30(b) (Fucal Research product Mp-P30-9-AB). The assay can be described thus: competitive inhibition ELISA, full-length P30 coated, 5 ug/mL P30(b) + peptide 1 at x640 the antibody concentration.
Assay [25] deals with antibody P30(a) (Fucal Research product Mp-P30-3-AB). The assay can be described thus: competitive inhibition ELISA, full-length P30 coated, 5 ug/mL P30(a) + peptide 1 at x20 the antibody concentration.
For assay [26], the target named is antibody P30(b) (Fucal Research product Mp-P30-9-AB). The assay can be described thus: competitive inhibition ELISA, full-length P30 coated, 5 ug/mL P30(b) + peptide 1 at x40 the antibody concentration.
In assay [27] the target is antibody P30(a) (Fucal Research product Mp-P30-3-AB). The assay can be described thus: competitive inhibition ELISA, full-length P30 coated, 5 ug/mL P30(a) + peptide 1 at x40 the antibody concentration.
The target in assay [28] is antibody P30(b) (Fucal Research product Mp-P30-9-AB). The assay can be described thus: competitive inhibition ELISA, full-length P30 coated, 5 ug/mL P30(b) + peptide 1 at x20 the antibody concentration.
Assay [29] addresses antibody P30(a) (Fucal Research product Mp-P30-3-AB). The assay can be described thus: competitive inhibition ELISA, full-length P30 coated, 5 ug/mL P30(a) + peptide 1 at x80 the antibody concentration.
Assay [30] shares this target. The assay can be described thus: competitive inhibition ELISA, full-length P30 coated, 5 ug/mL P30(a) + peptide 1 at x160 the antibody concentration.
Assay [31] has as its target antibody P30(b) (Fucal Research product Mp-P30-9-AB). The assay can be described thus: competitive inhibition ELISA, full-length P30 coated, 5 ug/mL P30(b) + peptide 1 at x160 the antibody concentration.
Assay [32] addresses antibody P30(a) (Fucal Research product Mp-P30-3-AB). The assay can be described thus: competitive inhibition ELISA, full-length P30 coated, 5 ug/mL P30(a) + peptide 1 at x10 the antibody concentration.
Assay [33] has as its target antibody P30(b) (Fucal Research product Mp-P30-9-AB). The assay can be described thus: immunochromatography competition, 400 ng peptide 1 developed with P30Ag 10 pg/mL, P30(b) label and detection.
The target in assay [34] is antibody P30(a) (Fucal Research product Mp-P30-3-AB). The assay can be described thus: competitive inhibition ELISA, full-length P30 coated, 5 ug/mL P30(a) + peptide 1 at x1 the antibody concentration.
For assay [35] the target is unchanged. The assay can be described thus: competitive inhibition ELISA, full-length P30 coated at 4 ng/mL, 5 ug/mL P30(a) + peptide 1 at 40 times the antibody amount.
Assay [36] addresses antibody P30(b) (Fucal Research product Mp-P30-9-AB). The assay can be described thus: competitive inhibition ELISA, full-length P30 coated, 5 ug/mL P30(b) + peptide 1 at x10 the antibody concentration.
The target is the same in assay [37]. The assay can be described thus: competitive inhibition ELISA, full-length P30 coated, 5 ug/mL P30(b) + peptide 1 at x80 the antibody concentration.

The text below walks through data of US20180172684A1.

In [1], “antibody P30(b) (Fucal Research product Mp-P30-9-AB)” registered a Color intensity after 15 min of 58.2 mAbs. In addition, the Color intensity (Abs) in assay [2] and in [15] was 0.208 Abs each time. Further, the Color intensity (mAbs) is 6.1 mAbs in assay [3]; 24.3 mAbs in assay [4]; 7.9 mAbs in [5]; 40.5 mAbs in assay [6]; 31.8 mAbs in assay [7]; 16.3 mAbs in [8]. Moreover, the Color intensity (mAbs) in assay [10] amounted to 8.9 mAbs; in assay [11] it was 18.9 mAbs; in [12], 8.9 mAbs; in assay [13], 79.4 mAbs; in assay [14], 29.8 mAbs; in [16] it was 159 mAbs. Also, the results for the Color intensity (mAbs) in assay [17] and in [18] were 13.6 mAbs and 15.2 mAbs, respectively. The absorbance at 450 nm after subtracting the blank in assay [9] is 0.061 Abs.

B1: Peptide 1 (SEQ ID NO: 6: …) (peptide)
peptide: PGMAPRPGMPPHPGMAPR
Regarding B1, the Color intensity after 15 min amounted to 100 mAbs in assay [19] and 60.9 mAbs in assay [33]. For the same molecule, the Color intensity (Abs) in assay [20] came out at 0.226 Abs; in [21], 0.132 Abs; in assay [22], 0.23 Abs; in [23], 0.12 Abs; in assay [24], 0.225 Abs; in assay [25] it was 0.322 Abs. Moreover, the Color intensity (Abs) in assay [26] amounted to 0.232 Abs; in assay [27], 0.24 Abs; in [28], 0.228 Abs; in assay [29] it was 0.17 Abs; in assay [30], 0.134 Abs; in assay [31], 0.223 Abs. For the same molecule, the Color intensity (Abs) in [32] came to 0.341 Abs; in assay [34] it was 0.37 Abs; in assay [36] it was 0.256 Abs; in assay [37] it was 0.237 Abs. Moreover, the Percentage reduction of color intensity (%) in assay [21] stood at 68%; in assay [23], 71%; in [25] it was 22%; in [27] it was 42%; in assay [29], 59%; in assay [30] it was 67%. Moreover, the values for the Percentage reduction of color intensity (%) in assay [32] and in [34] were 17% and 10%, respectively. In addition, the percentage reduction of absorbance in assay [35] is more than 30%.
